# Experimental data from publication PMC7515722, “Participation of RecJ in the base excision repair pathway of Deinococcus radiodurans”.
# Molecular target: T1, drRecJ R109A (Deinococcus radiodurans, UniProt D0EM60 1-705, R109A)
# T1 sequence: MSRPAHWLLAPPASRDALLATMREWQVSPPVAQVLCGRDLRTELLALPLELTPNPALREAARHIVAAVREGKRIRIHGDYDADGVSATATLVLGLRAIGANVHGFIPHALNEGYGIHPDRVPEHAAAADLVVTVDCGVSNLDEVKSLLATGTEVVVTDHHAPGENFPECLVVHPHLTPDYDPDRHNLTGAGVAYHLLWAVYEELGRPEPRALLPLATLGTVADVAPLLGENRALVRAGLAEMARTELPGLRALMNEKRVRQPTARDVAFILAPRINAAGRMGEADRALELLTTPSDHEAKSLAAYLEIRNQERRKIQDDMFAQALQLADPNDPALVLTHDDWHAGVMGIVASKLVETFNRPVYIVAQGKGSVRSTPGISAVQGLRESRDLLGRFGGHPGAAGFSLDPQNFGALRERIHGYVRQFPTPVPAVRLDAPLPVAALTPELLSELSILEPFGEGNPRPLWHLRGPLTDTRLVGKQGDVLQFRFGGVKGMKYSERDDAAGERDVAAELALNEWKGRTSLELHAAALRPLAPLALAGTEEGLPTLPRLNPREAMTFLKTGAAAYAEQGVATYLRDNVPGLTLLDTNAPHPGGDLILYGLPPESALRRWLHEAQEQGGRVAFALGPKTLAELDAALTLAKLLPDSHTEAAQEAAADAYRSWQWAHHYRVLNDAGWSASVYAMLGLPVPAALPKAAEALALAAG
# Assay: EMSA; no Mn2+ added; EMSA: 10 nM 3'-6-FAM ssDNA, 50 mM Tris-HCl pH 7.5, 150 mM KCl, 0.1 mg/ml BSA, 1 mM DTT, 5% glycerol, 20 min at 30 C; 8% native PAGE in TBE; Hill fit
# Conditions: protein: recombinant; tags: tag removed with TEV; label: 3'-6-FAM
binder,measurement,value
"AAAAAAAAAAAAAAAAAAAA (ssDNA, 5'-P-dSpacer (tetrahydrofuran abasic, 5'-dRP mimic) added before A1) [KY11, 5'-P-dSpacer-(dA)20]",binding signal,2 fold reduction
